The target in this assay is T1, human GPRC5D (human, UniProt Q9NZD1 1-345).
T1 construct: on transfected HEK293 or RBL cells, or endogenous on MM1R, H929, OPM2, LP-1, JIM3 and patient plasma cells; also called G-protein coupled receptor family C group 5 member D; hGPRC5D
In words: FACS, human GPRC5D cells. (In general: In flow cytometry, cells or beads pass a laser one at a time.)

T1 sequence (Q9NZD1 whole entry): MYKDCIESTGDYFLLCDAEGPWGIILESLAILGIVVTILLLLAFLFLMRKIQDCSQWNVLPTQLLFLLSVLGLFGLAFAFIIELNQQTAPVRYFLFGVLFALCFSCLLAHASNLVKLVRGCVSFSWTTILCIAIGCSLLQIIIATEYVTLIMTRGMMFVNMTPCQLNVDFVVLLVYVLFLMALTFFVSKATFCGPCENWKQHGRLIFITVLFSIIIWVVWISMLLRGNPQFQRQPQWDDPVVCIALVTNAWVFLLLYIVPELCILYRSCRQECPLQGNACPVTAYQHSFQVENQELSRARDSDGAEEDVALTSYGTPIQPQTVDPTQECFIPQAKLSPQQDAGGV

B1: GC5B479 (antibody, V domains shown)
VH: EVQLVQSGAEVKKPGESLKISCKGSGYSFTSYGIGWVRQMPGKGLEWMGIIYPGSSDTRYSPSFQGQVTISADKSISTAYLQWSSLKASDTAMYYCARVYSFGGRHKALFDYWGQGTLVTVSS
VL: EIVLTQSPATLSLSPGERATLSCRASQSVSSYLAWYQQKPGQAPRLLIYDASNRATGIPARFSGSGSGTDFTLTISSLEPEDFAVYYCQQRSNWPLTFGQGTKVEIK
notes: GC5B164 PTM variant, Hc GC5H270
On to B1, for which the binding result is given as “binds”.

B2: GC5B482 (antibody, V domains shown)
VH: EVQLVQSGAEVKKPGESLKISCKGSGYSFTSYVIGWVRQMPGKGLEWMGIIYPGKSDTRYSPSFQGQVTISADKSISTAYLQWSSLKASDTAMYYCARVYSFGGRHKALFDYWGQGTLVTVSS
VL: EIVLTQSPATLSLSPGERATLSCRASQSVSSYLAWYQQKPGQAPRLLIYDASNRATGIPARFSGSGSGTDFTLTISSLEPEDFAVYYCQQRSNWPLTFGQGTKVEIK
notes: GC5B164 PTM variant, Hc GC5H267
Turning to B2, the binding result is “binds”.

B3: GC5B492 (antibody, V domains shown)
VH: EVQLVQSGAEVKKPGESLKISCKGSGYSFTSYVIGWVRQMPGKGLEWMGIIYPGYSDTRYSPSFQGQVTISADKSISTAYLQWSSLKASDTAMYYCARVYSFGGRHKALFDYWGQGTLVTVSS
VL: EIVLTQSPATLSLSPGERATLSCRASQSVSSYLAWYQQKPGQAPRLLIYDASNRATGIPARFSGSGSGTDFTLTISSLEPEDFAVYYCQQRSNWPLTFGQGTKVEIK
notes: GC5B164 PTM variant, Hc GC5H257
B3: the binding result is on record as “binds”.

B4: GC5B495 (antibody, V domains shown)
VH: EVQLVQSGAEVKKPGESLKISCKGSGYSFTSYAIGWVRQMPGKGLEWMGIIYPGYSDTRYSPSFQGQVTISADKSISTAYLQWSSLKASDTAMYYCARVYSFGGRHKALFDYWGQGTLVTVSS
VL: EIVLTQSPATLSLSPGERATLSCRASQSVSSYLAWYQQKPGQAPRLLIYDASNRATGIPARFSGSGSGTDFTLTISSLEPEDFAVYYCQQRSNWPLTFGQGTKVEIK
notes: GC5B164 PTM variant, Hc GC5H254
Consider B4, for which the binding result was “binds”.

B5: GC5B480 (antibody, V domains shown)
VH: EVQLVQSGAEVKKPGESLKISCKGSGYSFTSYAIGWVRQMPGKGLEWMGIIYPGSSDTRYSPSFQGQVTISADKSISTAYLQWSSLKASDTAMYYCARVYSFGGRHKALFDYWGQGTLVTVSS
VL: EIVLTQSPATLSLSPGERATLSCRASQSVSSYLAWYQQKPGQAPRLLIYDASNRATGIPARFSGSGSGTDFTLTISSLEPEDFAVYYCQQRSNWPLTFGQGTKVEIK
notes: GC5B164 PTM variant, Hc GC5H269
In the case of B5, the binding result is “binds”.

B6: GC5B501 (antibody, V domains shown)
VH: EVQLVQSGAEVKKPGESLKISCKGSGYSFTSYWIGWVRQMPGKGLEWMGIIYPGASDTRYSPSFQGQVTISADKSISTAYLQWSSLKASDTAMYYCARVYSFGGRHKALFDYWGQGTLVTVSS
VL: EIVLTQSPATLSLSPGERATLSCRASQSVSSYLAWYQQKPGQAPRLLIYDASNRATGIPARFSGSGSGTDFTLTISSLEPEDFAVYYCQQRSNWPLTFGQGTKVEIK
notes: GC5B164 PTM variant, Hc GC5H248
B6: the binding result was “binds”.

B7: GC5B484 (antibody, V domains shown)
VH: EVQLVQSGAEVKKPGESLKISCKGSGYSFTSYGIGWVRQMPGKGLEWMGIIYPGKSDTRYSPSFQGQVTISADKSISTAYLQWSSLKASDTAMYYCARVYSFGGRHKALFDYWGQGTLVTVSS
VL: EIVLTQSPATLSLSPGERATLSCRASQSVSSYLAWYQQKPGQAPRLLIYDASNRATGIPARFSGSGSGTDFTLTISSLEPEDFAVYYCQQRSNWPLTFGQGTKVEIK
notes: GC5B164 PTM variant, Hc GC5H265
As to B7, the binding result was “binds”.

B8: GC5B483 (antibody, IgG4, V domains shown)
VH: EVQLVQSGAEVKKPGESLKISCKGSGYSFTSYFIGWVRQMPGKGLEWMGIIYPGKSDTRYSPSFQGQVTISADKSISTAYLQWSSLKASDTAMYYCARVYSFGGRHKALFDYWGQGTLVTVSS
VL: EIVLTQSPATLSLSPGERATLSCRASQSVSSYLAWYQQKPGQAPRLLIYDASNRATGIPARFSGSGSGTDFTLTISSLEPEDFAVYYCQQRSNWPLTFGQGTKVEIK
notes: GC5B164 variant D55K, W33F; IgG4 S228P, L234A, L235A; also called GC5H266
B8: the binding result is “binds”.

B9: GC5B493 (antibody, V domains shown)
VH: EVQLVQSGAEVKKPGESLKISCKGSGYSFTSYFIGWVRQMPGKGLEWMGIIYPGYSDTRYSPSFQGQVTISADKSISTAYLQWSSLKASDTAMYYCARVYSFGGRHKALFDYWGQGTLVTVSS
VL: EIVLTQSPATLSLSPGERATLSCRASQSVSSYLAWYQQKPGQAPRLLIYDASNRATGIPARFSGSGSGTDFTLTISSLEPEDFAVYYCQQRSNWPLTFGQGTKVEIK
notes: GC5B164 PTM variant, Hc GC5H256
Consider B9, for which the binding result is “binds”.

B10: GC5B490 (antibody, V domains shown)
VH: EVQLVQSGAEVKKPGESLKISCKGSGYSFTSYAIGWVRQMPGKGLEWMGIIYPGESDTRYSPSFQGQVTISADKSISTAYLQWSSLKASDTAMYYCARVYSFGGRHKALFDYWGQGTLVTVSS
VL: EIVLTQSPATLSLSPGERATLSCRASQSVSSYLAWYQQKPGQAPRLLIYDASNRATGIPARFSGSGSGTDFTLTISSLEPEDFAVYYCQQRSNWPLTFGQGTKVEIK
notes: GC5B164 PTM variant, Hc GC5H259
Turning to B10, the binding result is listed as “binds”.

B11: GC5B498 (antibody, V domains shown)
VH: EVQLVQSGAEVKKPGESLKISCKGSGYSFTSYFIGWVRQMPGKGLEWMGIIYPGDSDTRYSPSFQGQVTISADKSISTAYLQWSSLKASDTAMYYCARVYSFGGRHKALFDYWGQGTLVTVSS
VL: EIVLTQSPATLSLSPGERATLSCRASQSVSSYLAWYQQKPGQAPRLLIYDASNRATGIPARFSGSGSGTDFTLTISSLEPEDFAVYYCQQRSNWPLTFGQGTKVEIK
notes: GC5B164 PTM variant, Hc GC5H251
On to B11, for which the binding result was “binds”.

B12: GC5B496 (antibody, V domains shown)
VH: EVQLVQSGAEVKKPGESLKISCKGSGYSFTSYYIGWVRQMPGKGLEWMGIIYPGDSDTRYSPSFQGQVTISADKSISTAYLQWSSLKASDTAMYYCARVYSFGGRHKALFDYWGQGTLVTVSS
VL: EIVLTQSPATLSLSPGERATLSCRASQSVSSYLAWYQQKPGQAPRLLIYDASNRATGIPARFSGSGSGTDFTLTISSLEPEDFAVYYCQQRSNWPLTFGQGTKVEIK
notes: GC5B164 PTM variant, Hc GC5H253
With B12, the binding result is “binds”.

B13: GC5B502 (antibody, V domains shown)
VH: EVQLVQSGAEVKKPGESLKISCKGSGYSFTSYWIGWVRQMPGKGLEWMGIIYPGSSDTRYSPSFQGQVTISADKSISTAYLQWSSLKASDTAMYYCARVYSFGGRHKALFDYWGQGTLVTVSS
VL: EIVLTQSPATLSLSPGERATLSCRASQSVSSYLAWYQQKPGQAPRLLIYDASNRATGIPARFSGSGSGTDFTLTISSLEPEDFAVYYCQQRSNWPLTFGQGTKVEIK
notes: GC5B164 PTM variant, Hc GC5H247
B13: the binding result was “binds”.

B14: GC5B485 (antibody, V domains shown)
VH: EVQLVQSGAEVKKPGESLKISCKGSGYSFTSYAIGWVRQMPGKGLEWMGIIYPGKSDTRYSPSFQGQVTISADKSISTAYLQWSSLKASDTAMYYCARVYSFGGRHKALFDYWGQGTLVTVSS
VL: EIVLTQSPATLSLSPGERATLSCRASQSVSSYLAWYQQKPGQAPRLLIYDASNRATGIPARFSGSGSGTDFTLTISSLEPEDFAVYYCQQRSNWPLTFGQGTKVEIK
notes: GC5B164 PTM variant, Hc GC5H264
As for B14, the binding result is given as “binds”.

B15: GC5B497 (antibody, V domains shown)
VH: EVQLVQSGAEVKKPGESLKISCKGSGYSFTSYVIGWVRQMPGKGLEWMGIIYPGDSDTRYSPSFQGQVTISADKSISTAYLQWSSLKASDTAMYYCARVYSFGGRHKALFDYWGQGTLVTVSS
VL: EIVLTQSPATLSLSPGERATLSCRASQSVSSYLAWYQQKPGQAPRLLIYDASNRATGIPARFSGSGSGTDFTLTISSLEPEDFAVYYCQQRSNWPLTFGQGTKVEIK
notes: GC5B164 PTM variant, Hc GC5H252
In the case of B15, the binding result is recorded as “binds”.

B16: GC5B494 (antibody, V domains shown)
VH: EVQLVQSGAEVKKPGESLKISCKGSGYSFTSYGIGWVRQMPGKGLEWMGIIYPGYSDTRYSPSFQGQVTISADKSISTAYLQWSSLKASDTAMYYCARVYSFGGRHKALFDYWGQGTLVTVSS
VL: EIVLTQSPATLSLSPGERATLSCRASQSVSSYLAWYQQKPGQAPRLLIYDASNRATGIPARFSGSGSGTDFTLTISSLEPEDFAVYYCQQRSNWPLTFGQGTKVEIK
notes: GC5B164 PTM variant, Hc GC5H255
Take B16: the binding result is given as “binds”.

B17: GC5B481 (antibody, V domains shown)
VH: EVQLVQSGAEVKKPGESLKISCKGSGYSFTSYYIGWVRQMPGKGLEWMGIIYPGKSDTRYSPSFQGQVTISADKSISTAYLQWSSLKASDTAMYYCARVYSFGGRHKALFDYWGQGTLVTVSS
VL: EIVLTQSPATLSLSPGERATLSCRASQSVSSYLAWYQQKPGQAPRLLIYDASNRATGIPARFSGSGSGTDFTLTISSLEPEDFAVYYCQQRSNWPLTFGQGTKVEIK
notes: GC5B164 PTM variant, Hc GC5H268
Regarding B17, the binding result is “binds”.

B18: GC5B487 (antibody, V domains shown)
VH: EVQLVQSGAEVKKPGESLKISCKGSGYSFTSYVIGWVRQMPGKGLEWMGIIYPGESDTRYSPSFQGQVTISADKSISTAYLQWSSLKASDTAMYYCARVYSFGGRHKALFDYWGQGTLVTVSS
VL: EIVLTQSPATLSLSPGERATLSCRASQSVSSYLAWYQQKPGQAPRLLIYDASNRATGIPARFSGSGSGTDFTLTISSLEPEDFAVYYCQQRSNWPLTFGQGTKVEIK
notes: GC5B164 PTM variant, Hc GC5H262
On to B18, for which the binding result is given as “binds”.

B19: GC5B488 (antibody, V domains shown)
VH: EVQLVQSGAEVKKPGESLKISCKGSGYSFTSYFIGWVRQMPGKGLEWMGIIYPGESDTRYSPSFQGQVTISADKSISTAYLQWSSLKASDTAMYYCARVYSFGGRHKALFDYWGQGTLVTVSS
VL: EIVLTQSPATLSLSPGERATLSCRASQSVSSYLAWYQQKPGQAPRLLIYDASNRATGIPARFSGSGSGTDFTLTISSLEPEDFAVYYCQQRSNWPLTFGQGTKVEIK
notes: GC5B164 PTM variant, Hc GC5H261
For the molecule B19, the binding result is “binds”.

B20: GC5B486 (antibody, V domains shown)
VH: EVQLVQSGAEVKKPGESLKISCKGSGYSFTSYYIGWVRQMPGKGLEWMGIIYPGESDTRYSPSFQGQVTISADKSISTAYLQWSSLKASDTAMYYCARVYSFGGRHKALFDYWGQGTLVTVSS
VL: EIVLTQSPATLSLSPGERATLSCRASQSVSSYLAWYQQKPGQAPRLLIYDASNRATGIPARFSGSGSGTDFTLTISSLEPEDFAVYYCQQRSNWPLTFGQGTKVEIK
notes: GC5B164 PTM variant, Hc GC5H263
Consider B20, for which the binding result is “binds”.

B21: GC5B491 (antibody, V domains shown)
VH: EVQLVQSGAEVKKPGESLKISCKGSGYSFTSYYIGWVRQMPGKGLEWMGIIYPGYSDTRYSPSFQGQVTISADKSISTAYLQWSSLKASDTAMYYCARVYSFGGRHKALFDYWGQGTLVTVSS
VL: EIVLTQSPATLSLSPGERATLSCRASQSVSSYLAWYQQKPGQAPRLLIYDASNRATGIPARFSGSGSGTDFTLTISSLEPEDFAVYYCQQRSNWPLTFGQGTKVEIK
notes: GC5B164 PTM variant, Hc GC5H258
Consider B21, for which the binding result is “binds”.

(Values after US20230227548A1 (published 2023).)
